Source: PMC10279700, “Structural insights into regulation of the PEAK3 pseudokinase scaffold by 14-3-3” (Nature Communications, 2023)

T1: endogenous 14-3-3, P62258
T1 chain: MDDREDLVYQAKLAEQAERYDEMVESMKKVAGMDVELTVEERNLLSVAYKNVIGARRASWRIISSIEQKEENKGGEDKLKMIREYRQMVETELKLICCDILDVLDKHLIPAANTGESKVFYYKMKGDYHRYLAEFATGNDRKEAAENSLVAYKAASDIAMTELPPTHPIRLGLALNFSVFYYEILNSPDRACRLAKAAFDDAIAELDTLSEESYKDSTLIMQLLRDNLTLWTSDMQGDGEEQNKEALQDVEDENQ

B1: FLAG-tagged full-length human PEAK3 (PEAK3-1xFLAG) (natural protein, UniProt Q6ZS72 1-473, looked up)
chain: MSSPEPPTEPPEPDNPTWSTQPTYSNLGQIRAHLLPSKACRLRTPGSLSTNPEPLPPPLPKKILTRTQSLPTRRTLHPSSIQVQPPRRPFLGSHSVDKSQAAVGPACLPAELTFGPADAPLGLSLRDLHSPEAVHTALAARQLQGLRTIYARLRARLMGGHPGPCHPGHSFRLLDSSPCAESGDALYYRVVRAHEDAWHILVAKVPKPGADVPHPWGLELQASLSPHFNLQGLCGLVPEGTLPGAPWRGAVALAAEVPERTVAQWLAEACTQPPEEFVWAVALLLLQLSAALKFLEAWGAALVELRPENLLLVAPRGCATTGPPRLLLTDFGRVCLQPPGPPGSPGPHAPQLGSLLRALLSLAAPSTTPLAAGLELLAAQLTRLRPSASRTRGALQALLWGPGPELRGRGAPLGPWLRALGPWLRVRRGLLVLRLAERAAGGEAPSLEDWLCCEYLAEATESSMGQALALLWD
modifications: phosphoserine at 69
notes: PEAK3 pseudokinase (C19orf35), human, gene synthesized by GenScript; residues modelled: chain A 128-406, 419-473; chain B 130-406, 415-472; N-terminal peptides chain E 66-73 and chain P 66-72; Purifies as a homodimer, alone or in complex with an endogenous 14-3-3 heterodimer; also called C19orf35; PEAK3 homodimer; source: Expi293F, transfected, purified (G1 Flag resin, FLAG peptide elution, …)

Columns and labels:
[1] = target: FLAG-tagged PEAK3 R147A (human) (UniProt Q6ZS72); test: co-IP; FLAG-tagged PEAK3 variants transiently expressed in HEK293; anti-FLAG/protein A beads overnight at 4 °C; endogenous 14-3-3 detected with anti-pan 14-3-3 by Western blot; also after 1 h of 0.1% DMSO or PKD inhibitors CRT0066101 or CID755673 (dose-dependent decrease, not abolished)
[2] = target: B1; test: cryo-EM structure; PEAK3/14-3-3 complex co-purified from Expi293F (FLAG affinity, SEC), 7 uM, 0.1% n-Octyl-β-D-glucoside; 169,563 particles, C1, 3.1 Å; conditions: both partners purified
[3] = target: T1, endogenous 14-3-3, P62258; test: co-immunoprecipitation, quantified Western blot; conditions: chain shown with the change; transiently expressed in HEK293 cells; 3 independent experiments; parent: est. 100; read off a plot
[4] = target: the molecule itself; test: cryo-EM structure; PEAK3/14-3-3 complex co-purified from Expi293F (FLAG affinity, SEC), 7 uM, 0.1% n-Octyl-β-D-glucoside; 169,563 particles, C1, 3.1 Å

percent of parent [3] | Molecule | also measured
 | endogenous 14-3-3 (from UniProt P62258 1-255) (FLAG-tagged variant transiently expressed in HEK293) | reduction in 14-3-3 association relative to WT PEAK3 [1]: 75%
 | 14-3-3β (natural protein, human (endogenous in Expi293F), UniProt P31946 1-246, looked up, 14-3-3 protein beta, human; residues 3-232 modelled in the cryo-EM structure; also called 14-3-3 beta; β isoform; source: endogenous, Expi293F, co-purified with PEAK3-1xFLAG) MTMDKSELVQKAKLAEQAERYDDMAAAMKAVTEQGHELSNEERNLLSVAYKNVVGARRSSWRVISSIEQKTERNEKKQQMGKEYREKIEAELQDICNDVLELLDKYLIPNATQPESKVFYLKMKGDYFRYLSEVASGDNKQTTVSNSQQAYQEAFEISKKEMQPTHPIRLGLALNFSVFYYEILNSPEKACSLAKTAFDEAIAELDTLNEESYKDSTLIMQLLRDNLTLWTSENQGDEGDAGEGEN | binding result [2]: binds
0 | FLAG-tagged WT PEAK3, Q6ZS72 S69A (protein) MSSPEPPTEPPEPDNPTWSTQPTYSNLGQIRAHLLPSKACRLRTPGSLSTNPEPLPPPLPKKILTRTQALPTRRTLHPSSIQVQPPRRPFLGSHSVDKSQAAVGPACLPAELTFGPADAPLGLSLRDLHSPEAVHTALAARQLQGLRTIYARLRARLMGGHPGPCHPGHSFRLLDSSPCAESGDALYYRVVRAHEDAWHILVAKVPKPGADVPHPWGLELQASLSPHFNLQGLCGLVPEGTLPGAPWRGAVALAAEVPERTVAQWLAEACTQPPEEFVWAVALLLLQLSAALKFLEAWGAALVELRPENLLLVAPRGCATTGPPRLLLTDFGRVCLQPPGPPGSPGPHAPQLGSLLRALLSLAAPSTTPLAAGLELLAAQLTRLRPSASRTRGALQALLWGPGPELRGRGAPLGPWLRALGPWLRVRRGLLVLRLAERAAGGEAPSLEDWLCCEYLAEATESSMGQALALLWD | 
57 | FLAG-tagged WT PEAK3, Q6ZS72 W298A (protein) MSSPEPPTEPPEPDNPTWSTQPTYSNLGQIRAHLLPSKACRLRTPGSLSTNPEPLPPPLPKKILTRTQSLPTRRTLHPSSIQVQPPRRPFLGSHSVDKSQAAVGPACLPAELTFGPADAPLGLSLRDLHSPEAVHTALAARQLQGLRTIYARLRARLMGGHPGPCHPGHSFRLLDSSPCAESGDALYYRVVRAHEDAWHILVAKVPKPGADVPHPWGLELQASLSPHFNLQGLCGLVPEGTLPGAPWRGAVALAAEVPERTVAQWLAEACTQPPEEFVWAVALLLLQLSAALKFLEAAGAALVELRPENLLLVAPRGCATTGPPRLLLTDFGRVCLQPPGPPGSPGPHAPQLGSLLRALLSLAAPSTTPLAAGLELLAAQLTRLRPSASRTRGALQALLWGPGPELRGRGAPLGPWLRALGPWLRVRRGLLVLRLAERAAGGEAPSLEDWLCCEYLAEATESSMGQALALLWD | 
82 | FLAG-tagged WT PEAK3, Q6ZS72 S225A (protein) MSSPEPPTEPPEPDNPTWSTQPTYSNLGQIRAHLLPSKACRLRTPGSLSTNPEPLPPPLPKKILTRTQSLPTRRTLHPSSIQVQPPRRPFLGSHSVDKSQAAVGPACLPAELTFGPADAPLGLSLRDLHSPEAVHTALAARQLQGLRTIYARLRARLMGGHPGPCHPGHSFRLLDSSPCAESGDALYYRVVRAHEDAWHILVAKVPKPGADVPHPWGLELQASLAPHFNLQGLCGLVPEGTLPGAPWRGAVALAAEVPERTVAQWLAEACTQPPEEFVWAVALLLLQLSAALKFLEAWGAALVELRPENLLLVAPRGCATTGPPRLLLTDFGRVCLQPPGPPGSPGPHAPQLGSLLRALLSLAAPSTTPLAAGLELLAAQLTRLRPSASRTRGALQALLWGPGPELRGRGAPLGPWLRALGPWLRVRRGLLVLRLAERAAGGEAPSLEDWLCCEYLAEATESSMGQALALLWD | 
62 | FLAG-tagged WT PEAK3, Q6ZS72 K293A (protein) MSSPEPPTEPPEPDNPTWSTQPTYSNLGQIRAHLLPSKACRLRTPGSLSTNPEPLPPPLPKKILTRTQSLPTRRTLHPSSIQVQPPRRPFLGSHSVDKSQAAVGPACLPAELTFGPADAPLGLSLRDLHSPEAVHTALAARQLQGLRTIYARLRARLMGGHPGPCHPGHSFRLLDSSPCAESGDALYYRVVRAHEDAWHILVAKVPKPGADVPHPWGLELQASLSPHFNLQGLCGLVPEGTLPGAPWRGAVALAAEVPERTVAQWLAEACTQPPEEFVWAVALLLLQLSAALAFLEAWGAALVELRPENLLLVAPRGCATTGPPRLLLTDFGRVCLQPPGPPGSPGPHAPQLGSLLRALLSLAAPSTTPLAAGLELLAAQLTRLRPSASRTRGALQALLWGPGPELRGRGAPLGPWLRALGPWLRVRRGLLVLRLAERAAGGEAPSLEDWLCCEYLAEATESSMGQALALLWD | 
 | B1 | stoichiometry N [4]: 2
43 | FLAG-tagged WT PEAK3, Q6ZS72 K293A; W298A (protein) MSSPEPPTEPPEPDNPTWSTQPTYSNLGQIRAHLLPSKACRLRTPGSLSTNPEPLPPPLPKKILTRTQSLPTRRTLHPSSIQVQPPRRPFLGSHSVDKSQAAVGPACLPAELTFGPADAPLGLSLRDLHSPEAVHTALAARQLQGLRTIYARLRARLMGGHPGPCHPGHSFRLLDSSPCAESGDALYYRVVRAHEDAWHILVAKVPKPGADVPHPWGLELQASLSPHFNLQGLCGLVPEGTLPGAPWRGAVALAAEVPERTVAQWLAEACTQPPEEFVWAVALLLLQLSAALAFLEAAGAALVELRPENLLLVAPRGCATTGPPRLLLTDFGRVCLQPPGPPGSPGPHAPQLGSLLRALLSLAAPSTTPLAAGLELLAAQLTRLRPSASRTRGALQALLWGPGPELRGRGAPLGPWLRALGPWLRVRRGLLVLRLAERAAGGEAPSLEDWLCCEYLAEATESSMGQALALLWD | 
